In patent publication US20120076826A1:

Experiments:
[1] = biological target: recombinant Can f 4 (dog); assay: experimental rCan f 4 ImmunoCAP
[2] = biological target: IgE of Bos d 23k-reactive serum A; assay: ImmunoCAP IgE inhibition; serum preincubated with 100 µg/mL rCan f 4, Bos d 23k immobilized
[3] = biological target: IgE of Bos d 23k-reactive serum B; assay: as above
[4] = biological target: IgE of Bos d 23k-reactive serum C; assay: as above

| Molecule | allergen specific IgE antibody [1] [kUA/L] | percent inhibition of IgE binding to Bos d 23k [2] [%] | percent inhibition of IgE binding to Bos d 23k [3] [%] | percent inhibition of IgE binding to Bos d 23k [4] [%] |
| --- | --- | --- | --- | --- |
| myeloma IgE (antibody) | 0.023 | – | – | – |
| recombinant Can f 4 (protein, not shown: small tags and cut ends, N-terminal Met; C-terminal His6 tag) QLPLPNVLTQVSGPWKTLYISSNNLDKIGDNGPFRIYMRGINVDIPRLKMSFNFYVKVDGECVENSVGASIGRDNLIKGEYNGGNYFRIIDMTPNALIGYDVNVDSKGKITKVALLMGRGAHVNEEDIAKFKKLSREKGIPEENIIYLGDTDNCPNHE | – | > 96 | > 96 | > 96 |
